Measurements as given in publication PMC5059447.

What was measured:
[1] = molecular target: beak and feather disease virus capsid (Cap) protein, residues 14-247 (beak and feather disease virus (BFDV)); test: crystal structure; 10-mer crystals: 1.1 M ammonium sulfate, Tris pH 8.5, 0.1 M iron chloride, 290 K; space group P212121; no ssDNA
[2] = molecular target: beak and feather disease virus capsid (Cap) protein, residues 14-247 (beak and feather disease virus (BFDV)); test: crystal structure; 60-mer crystals: 0.8 M Na/K hydrogen phosphate pH 7.4, 290 K; space group F432; no ssDNA
[3] = molecular target: beak and feather disease virus capsid (Cap) protein, residues 14-247 (beak and feather disease virus (BFDV)); test: crystal structure; 60-mer co-crystallised with ssDNA oligonucleotides labelled with AlexaFluor488 and AlexaFluor647; space group F432

For “beak and feather disease virus capsid (Cap) protein, residues 14-247 (domain or fragment)”, the stoichiometry N [1] was 10, the stoichiometry N [2] was 60 and the stoichiometry N [3] was 60.
